Test results reported in publication PMC8131098.

Tests used:
Test in all cases: MST
Conditions in all cases: 50 nM RED-NHS labeled PdtaR, RNA up to 10 uM, autophosphorylation buffer (composition and pH not in material) with 0.025% Tween-20, 50 uM ATP …
[1] = test system: PdtaR (unphosphorylated) (Mycobacterium tuberculosis Erdman (ATCC 35801))
[2] = test system: PdtaR~P (phosphorylated by PdtaS) (Mycobacterium tuberculosis Erdman (ATCC 35801))
[3] = molecular target: T1, PdtaR (unphosphorylated) (Mycobacterium tuberculosis Erdman (ATCC 35801)) (UniProt P9WGM3)
T1 sequence: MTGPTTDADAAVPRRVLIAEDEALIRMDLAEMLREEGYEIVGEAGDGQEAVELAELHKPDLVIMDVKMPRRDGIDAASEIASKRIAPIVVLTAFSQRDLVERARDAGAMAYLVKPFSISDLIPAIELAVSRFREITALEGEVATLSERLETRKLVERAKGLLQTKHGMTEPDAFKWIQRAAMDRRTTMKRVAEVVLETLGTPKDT

Substance | Kd [1] | Kd [2] | Kd [3]
PPE1-5' RNA | 1280 nM | 410 nM | 
GGCAAAAAAUUCGUGCACCAACCCCCCUCCGAGCGCUGCUAAGCUCAAUGUGCAGUGCAAAGGUGCAGAUAAUGAUGGCGCACCGGAACGGCGAGCGUAAGGAAA [rv3864 RNA] |  |  | 2590 nM
rv3864 RNA | 2590 nM | 2120 nM | 
